Drawing on paper PMC10557868, “Piperacetazine Directly Binds to the PAX3::FOXO1 Fusion Protein and Inhibits Its Transcriptional Activity”, this text covers binding result and Kd for two molecules.

The target of data set [1] is T1, PAX3::FOXO1 fusion protein (UniProt P23760 1-391+Q12778:211-655, internal_change). Put plainly: SPR; DNA 1.25-80 nM; SPR, Biacore T-200, CM5 chip; PBS-P (20 mM phosphate pH 7.4, 137 mM NaCl, 2.7 mM KCl, 0.05% P20) stated as immobilization running buffer, with 5% DMSO for small molecules; temperature not stated. As to conditions: protein: recombinant; tags: C-terminal 12xHis; N-terminal internal HA tag; blunt.

Data set [2] has as its target T1, PAX3::FOXO1 fusion protein. Put plainly: SPR; SPR, Biacore T-200, CM5 chip; PBS-P (20 mM phosphate pH 7.4, 137 mM NaCl, 2.7 mM KCl, 0.05% P20) stated as immobilization running buffer, with 5% DMSO for small molecules; temperature not stated. Particulars: protein: recombinant; tags: C-terminal 12xHis; N-terminal internal HA tag; blunt.

T1 sequence (P23760 other isoform, or with tags, fused parts or gaps): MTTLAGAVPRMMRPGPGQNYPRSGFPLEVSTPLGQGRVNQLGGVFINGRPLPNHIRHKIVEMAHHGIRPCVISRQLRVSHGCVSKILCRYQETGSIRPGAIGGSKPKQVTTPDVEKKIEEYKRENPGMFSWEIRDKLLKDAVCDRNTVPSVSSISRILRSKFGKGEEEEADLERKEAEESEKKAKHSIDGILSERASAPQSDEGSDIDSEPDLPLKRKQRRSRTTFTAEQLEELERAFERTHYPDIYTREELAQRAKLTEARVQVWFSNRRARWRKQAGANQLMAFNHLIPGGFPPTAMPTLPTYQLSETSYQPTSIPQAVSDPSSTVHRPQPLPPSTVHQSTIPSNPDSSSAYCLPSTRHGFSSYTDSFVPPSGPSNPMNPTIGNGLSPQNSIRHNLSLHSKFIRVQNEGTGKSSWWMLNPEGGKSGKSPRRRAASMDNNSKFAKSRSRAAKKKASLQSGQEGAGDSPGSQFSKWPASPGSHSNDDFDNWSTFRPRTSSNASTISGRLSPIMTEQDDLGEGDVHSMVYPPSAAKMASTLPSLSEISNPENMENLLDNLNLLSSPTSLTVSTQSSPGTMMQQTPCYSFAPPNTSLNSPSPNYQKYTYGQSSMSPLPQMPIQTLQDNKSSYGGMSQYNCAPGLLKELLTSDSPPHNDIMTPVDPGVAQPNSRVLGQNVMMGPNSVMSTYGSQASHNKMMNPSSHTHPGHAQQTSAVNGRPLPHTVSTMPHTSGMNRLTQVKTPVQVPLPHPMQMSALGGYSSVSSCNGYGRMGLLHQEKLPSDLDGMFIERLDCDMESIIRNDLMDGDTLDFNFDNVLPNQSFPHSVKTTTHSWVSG

B1: EWS::FLI1-specific oligonucleotide (GGAA repeats) (dsDNA)
DNA 1: ACCGGAAGGAAGGAAGGAAGGAAGGAAGGAAGTG
DNA 2: CACTTCCTTCCTTCCTTCCTTCCTTCCTTCCGGT
Turning to B1, the binding result in data set [1] was “no binding”.

B2: PAX3::FOXO1-specific oligonucleotide (dsDNA)
DNA 1: ACCGTGACTAATTTAATTAGTCACG
DNA 2: CGTGACTAATTAAATTAGTCACGGT
B2: in data set [2], the equilibrium dissociation constant (Kd) was found to be 6.3 nM.
